Experimental data: the DeepSol protein solubility set

Assay: soluble on expression in E. coli; label from the status in PepcDB or PDB records

Row | Sequence | soluble on expression in E. coli
1 | LTSSNALRGDAHSRLAAHRGLLERTSRTTRVAGILRDAIIDGTFRPGARLSEPDICAALDVSRNTVREAFQILIEDRLVAHELNRGVFVRVPTAEDITELYICRRVVECAGVNGFDPATGDLSRVAEALDLADERYAVEDWTGVGTADIHFHSALASLNNSNRIDELMRSVWNEARLVFHVMDDAHRFHGPYLTRNHEIYDALAAGNTEAAGQLLKTYLEDAEAQILGAYRPVSG | soluble
2 | LDARFSDAESNSGLTKATTDTLEAYLDVNEDGTWEVDNFLKKSVDKQHGWMQIIDSEGNTDYSYGVPKDVPGTYTKKELLSIYKTKKLHNYKLNYWAINIEDKSYLLLSGWKSKSEQLLTSVEKREQKIDSLAHYKSSTIDYIKRKKGAIYLLDSNGKILDSINSTKSERKTMNQLELLKYSSKPWNYKREISVKILNKDRWMVATVPNPVYVTDQEFNKSFLK | not soluble
3 | MTARDYIWNADGEVGGINDKLRGCLVFSYDRSGWLTSRTGQMYDHDHYYYDKAGNLLTDEYQGAVMDNRLPGYGRDRYRYNEWGELTERRDQQLEWNAQGQLTRVISSNSETRYQYDALGRRISKATSNLHTDRGERSRTTFVWEGFRLLQETTWQGKRTYLYDAEQPYTPVAAITGRGESQKIWYYHTDLTGTVHEVTAPDGTLVWAGYQAGFGENRGDISNSGAYFEQPQRLPGQYFDEETGLHYNLFRYYAPECGRFVSQDPIGLNGGLNLYAYAPNPLGWIDPLGLNSLGIDSNNIFRGDGNYKGGGIGQPKSGTISAQDIIDHLLEHHHHHH | not soluble
4 | MADPGSVGHVFRRAFSWLPAQFASQSDAPVGAPRQFRSTEHLSIEAIAAFVDGELRMNAHLRAAHHLSLCAQCAAEVDDQSRARAALRDSHPIRIPSTLLGLLSEIPRCPPEGPSKGSSGGSSQGPPDGAAAGFGDRFADGDGGNRGRQSRVRR | soluble
5 | MGSDKIHHHHHHMVNEKRLLEEFLELVQIDSETKHEAEICKVLKRKFSDLGVDVKEDDTMDITGHGAGNLICTLKGTKQTDTIYFTSHMDTVVPGNGVKPVVENGYVKTDGTTILGADDKAGLAAMFEAIKVLKEENIEHGTIEFIITVGEESGLIGAKALDRPMITASYGYALDSDGKVGNIIVAAPTQAKVRAAIFGKTAHAGVEPEKGISAITIASKAISKMPLGRIDEETTANIGRFEGGTQTNIVCDEVHILAEARSLVPEKMEAQVQKMKAAFEEAAADMGGRAEVEIEVMYPGFKYQDGDQVVEIAKKAAAKIGRPSELQTSGGGSDANVIAGHGIPTVNLAVGYEQIHTKNEKMPIEELVKTAEMVVAIIEEAAK | not soluble
6 | MSLKKIQFFDTTLRDGEQTPGVNFDVKEKIQIALQLEKLGIDVIEAGFPISSPGDFECVKAIAKAIKHCSVTGLARCVEGDIDRAEEALKDAVSPQIHIFLATSDVHMEYKLKMSRAEVLASIKHHISYARQKFDVVQFSPEDATRSDRAFLIEAVQTAIDAGATVINIPDTVGYTNPTEFGQLFQDLRREIKQFDDIIFASHCHDDLGMATANALAAIENGARRVEGTINGIGERAGNTALEEVAVALHIRKDFYQAETNIVLNQFKNSSDLISRLSGMPVPRNKAVIGGNAYAHESGIHQDGVLKNPDTYEIITPALVGVDKNSLPLGKLSGKHAFNTRMEEMGYTLTEQEQKDAFKRFKQLADAKKEVTEEDLHALILGQSSESADDFELKHLQVQYVTGGVQGAIVRIEERDGALVEDAATGSGSIEAIYNTINRLMKQDIELTDYRIQAITAGQDAQAEVHVVIKNDKGAVFHGIGIDFDVLTASAKAYLQASGKSKTASKQADFEEVKEGHHHHHH | not soluble
7 | MPASYAYLGPEGTFTEVALRTLPEAATRELVPMVSVPAALDAVRNGEAEAAFVPIENSVEGGITTTLDELVAGEPLMIYREVLLSITFALLVRPDTKLSEIKTVTAHPAAQPQVRNWMKANLPDVVWESAASNADGARLVQEGRYDAAFAGEFAAAKYGLVPLETGIHDAENAQTRFVLVGRPAR | not soluble
8 | MDGSLSRPAVLDRAARQKRGTMARPQSKKKQTQVVRRPRRRGRLVPPGRLIAGRDFPEFLQQAVLLSGSLRQAARKLRVSYSTLRGWFGRRCDEPPEGGGDLLAEHAAAIRAELDAAAERLAMVRGQLDALERGE | not soluble
9 | MGSDKIHHHHHHMQTSHCLWQRKLVAFTSRSERMDENWKQQLATDSYGNPVRSISNLRLIFTLDENLSQIRYDTFCQDDVCFNPLFRNVNGNKIDEESVGKIQDYLERTYRLRLTQNKVFEILKTTSSERSFNPVQEFITQETWDGQPRIATAIIDYLGAEDMPLVREQTKLWFVAAVARVFSPGCKFDNVLTLPGPQGIGKSTFFKTISGKWFNDSFSFASGDKEKVETITNGWIIEISELNGLKRANDVEAAKAFLSRCSDYMRPAYGHKVVEFMRHNVFAATTNETNFLQGDNGNRRWWIIPVKGNGHVSDWLDCLQHSVPQLWAEAYTYYRQGMKLYLSPDMEIEANEIQMQHSNILVDPIMEDIEMYLEREVPVQYASWMIPTRLAYQKGAYSEPNSTMTSLNMVCARQIIEELPNDLVRRNTSKYTSQYINRLMSMIPNWKRSKQEKVKGLHPAYCDKTGRSKHPWVRVGTPSEEVCATLPSEPELPF | not soluble
10 | ADQPIDADVTVIGSGPGGYVAAIKAAQLGFKTVCIEKNETLGGTCLNVGCIPSKALLNNSHYYHMAHGTDFASRGIEMSEVRLNLDKMMEQKSTAVKALTGGIAHLFKQNKVVHVNGYGKITGKNQVTATKADGGTQVIDTKNILIATGSEVTPFPGITIDEDTIVSSTGALSLKKVPEKMVVIGAGVIGVELGSVWQRLGADVTAVEFLGHVGGVGIDMEISKNFQRILQKQGFKFKLNTKVTGATKKSDGKIDVSIEAASGGKAEVITCDVLLVCIGRRPFTKNLGLEELGIELDPRGRIPVNTRFQTKIPNIYAIGDVVAGPMLAHKAEDEGIICVEGMAGGAVHIDYNCVPSVIYTHPEVAWVGKSEEQLKEEGIEYKVGKFPFAANSRAKTNADTDGMVKILGQKSTDRVLGAHILGPGAGEMVNEAALALEYGASCEDIARVCHAHPTLSEAFREANLAASFGKSINF | soluble
11 | MSLNEIDKSVDIGFLRILDVIKKVKTPKGGIEVLRTLIDFTPKIENALNLATKSHKGQYRKSGEPYIVHPICVASVVAFCGGDEAMVCAALLHDVVEDTPCEIETIEREFGQDVANLVDALTKITEIRKEELGVSSQDPRMVVSALTFRKILISAIQDPRALVVKISDRLHNMLTLDALPHDKQVRISKETLAVYAPIASRLGMSSIKNELEDKSFYYIYPEEYKNIKEYLHKNKQSLLLKLNAFASKLEKKLFDSGFSHSDFKLVTRVKRPYSIYLKMQRKGAVNIDEILDLLAIRILLKNPIDCYKVLGIIHLNFKPIVSRFKDYIALPKENGYKTIHTTIFDESSVYEVQIRTFDMHMGAEYGNSAHWKYKAGGVDHEEHHEGMRWLQNFKYHDSDLKNDPKEFYELAKNDLYREDIVVFSPHGDTYTLPVGAIALDFAYMVHSDLGDKATDAYINSKKALLNQELRSGDVVKIIKGDKVIPRFIWMDQLKTSKAKNHLRIQRRNRLKEIDTKSMINILATFFGRSVFEDADLKDYKNFEEKLTDCGVETTLTEAMKSFENLAKLTEEIENKVFSLKEDAILEYQEMSLWTRGLRYLGFKTNVLNFLTPNRQWQCKELEHFSVCSSNALEIKQVLLNDCCYPKYGDEIIAIVTDLKDPKAIAHHKFCKKAIAEVDAKVPMVYIEWHKRDRTIYKMMFYLGEKKSVLASLLTFLNRNECNIVGVSYLGYKDKYSSHCEVSFEIATDKADWMRALINRKYQDRIVELSSLDDAYELQEGHHHHHH | soluble
12 | MRGSHHHHHHTDPALRAPIIQSVERALQILDLFNEQATELKITDISKLMGLSKSTLHSLLKTLQLHGYIDQNPENGKYRLGMKLVERGHFVVGSIDIRQKAKGWLTELSRRTGQTTHLGILDGREGVYIEKIEGKLAAIAYSRIGRRLPVHATAIGKVLIAWLGEAELNALLEGYQYTTFTPATLASREALMSALAQTREQGYALDSEENEQGVRCVAVPVWNHESRVIAALSLSTLTSRVDDAELANFREQLQQAGLALSRALGYPAGLCGR | soluble
13 | MGSDKIHHHHHHMFSSEVIASFNELEMSIYNYICQHAEKVAYMRIRELADETHVSTATILRFCRKVDCDGFSEFKVKLKMHLEKEKKAPIKSSQHAIAEFFERAFRGDLEERISEAAALVADAENVIFIGIGSSGILAEYGARYFSALGKLSMYIKDFSYPIHSKLRQNSVTIALSVSGETHFTITQVNQLKQEGSKIISITNNKFSTIAKVADVNLSYYVSEEFFEKANITTQVPVVYILEAMARELYKLQG | not soluble
14 | ISASEDMFEDEDLIPRQNVVITLTHHGYIKRLPISTYRSQKRGGRGIQGMGTNEDDFVQHLFTTNSHHTILFFTNKGKVYRLKGYEIPELGRTAKGIPIINLLQIEQDEYISTIIPIEEFTED | soluble
15 | ATSDSNMLLNYVPVYVMLPLGVVNVDNVFEDPDGLKEQLLQLRAAGVDGVMVDVWWGIIELKGPKQYDWRAYRSLLQLVQECGLTLQAIMSFHQCGGNVGDIVNIPIPQWVLDIGESNHDIFYTNRSGTRNKEYLTVGVDNEPIFHGRTAIEIYSDYMKSFRENMSDFLESGLIIDIEVGLGPAGELRYPSYPQSQGWEFPGIGEFQCYDKYLKADFKAAVARAGHPEWELPDDAGKYNDVPESTGFFKSNGTYVTEKGKFFLTWYSNKLLNHGDQILDEANKAFLGCKVKLAIKVSGIHWWYKVENHAAELTAGYYNLNDRDGYRPIARMLSRHHAILNFSCLEMRDSEQPSDAKSGPQELVQQVLSGGWREDIRVAGENALPRYDATAYNQIILNARPQGVNNNGPPKLSMFGVTYLRLSDDLLQKSNFNIFKKFVLKMHADQDYCANPQKYNHAITPLKPSAPKIPIEVLLEATKPTLPFPWLPETDMKVDG | soluble
16 | MLRMDLQTYQKIYSSLHNFGDVFRLSEEYSRPAGMLATILNQKIVKMTRFKHRRVYSREKELFMKWKQGRSILELAEYTYFPPTLMASLILKNCDFSRKSINWLFKHLDCIENRRLRKEVRKALNADYFFSPRAHEMQCRKGEMGEEIVRKWLDDREIAYCTEAEIRAKGDGKTPDFVLSNPIFIEDHMVSWIESKALFGDDFEHKHYAKKQFREYADIFGEGMVVYWYGFLEDLSSEDEGYLIKDYRFFEGYQEQTDELFNYLVYWLEHHHHHH | not soluble
17 | MGSDKIHHHHHHMNLATPSQMTAASIETFDATSCAAFSACYPETPHKLVHRLRDHPLLQLDALAALGEELPAHSVEYNRADLPIGLNGGKAPPNGIGIGETIRNIASTGSWAALKNVEQVPAYAALLGELLEGLRPTIEARTGAMLKPQGFVFVTSPDGVTPYHFDPEHNILLQLMGSKVMTMFPAGDSRFAPDETHETYHTGGGRELFWRDELLGHGRQWPLSPGEALYVPVMSPHFVTNGPSPSVSLSITWRSEWSFAEADARAFNGLLRSMGLKPGAPRRWPASNRAKAMCWRLYGKVRGLR | not soluble
18 | MLELVQKGITPEDAITAGKKARKYFELTYYVMPGLGGRERSEQHAVNTARVINKAQPTFVRLRTLTVIEGTPIEKLVGKEITLLGPVEQLEEVRRLVEEIKVETLLLSDHVSNYLFTRSGPIFFGVSGKLPDEKEQMLEQVDDAIKTVKLLEESGERVFNSNDMYRMGLIGL | not soluble
